Laboratory results taken from article PMC4666396, “Mammalian splicing factor SF1 interacts with SURP domains of U2 snRNP-associated proteins” (Nucleic Acids Research, 2015).

T1: His6-SF1-C370 (human, UniProt Q15637 1-370)
T1 construct: human SF1, amino acids 1–370, the region common to all SF1 isoforms; in pTrcHisA; source: E. coli XL1-Blue, purified (TALON resin, lysis in 8 M urea, dialyzed); not shown: His6, N-terminal, kept
T1 sequence (looked up): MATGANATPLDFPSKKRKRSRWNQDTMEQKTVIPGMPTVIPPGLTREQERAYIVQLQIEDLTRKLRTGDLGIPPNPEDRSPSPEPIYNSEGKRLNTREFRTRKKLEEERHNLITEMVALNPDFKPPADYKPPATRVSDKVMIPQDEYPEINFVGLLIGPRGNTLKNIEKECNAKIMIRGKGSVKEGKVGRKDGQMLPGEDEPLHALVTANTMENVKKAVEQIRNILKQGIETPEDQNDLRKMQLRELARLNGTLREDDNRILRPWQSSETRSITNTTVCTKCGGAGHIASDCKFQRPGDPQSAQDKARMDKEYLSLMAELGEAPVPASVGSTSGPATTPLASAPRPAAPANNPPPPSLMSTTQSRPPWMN

T2: His6-SF1-C327 (human, UniProt Q15637 1-327)
T2 construct: human SF1, C-terminal truncation to residue 327; SF1-C370 is 1–370; source: E. coli XL1-Blue, purified (TALON resin, lysis in 8 M urea, dialyzed); not shown: His6, N-terminal, kept
T2 sequence (looked up): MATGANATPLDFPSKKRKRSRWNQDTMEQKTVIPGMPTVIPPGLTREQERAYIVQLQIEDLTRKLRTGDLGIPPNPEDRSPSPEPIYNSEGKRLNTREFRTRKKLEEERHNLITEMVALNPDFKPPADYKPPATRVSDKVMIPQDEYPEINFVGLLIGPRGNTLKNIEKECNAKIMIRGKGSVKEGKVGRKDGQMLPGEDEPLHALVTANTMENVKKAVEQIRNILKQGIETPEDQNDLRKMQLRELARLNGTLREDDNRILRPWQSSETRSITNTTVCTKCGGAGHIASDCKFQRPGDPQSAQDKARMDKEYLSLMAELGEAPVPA

T3: His6-SF1-C320 (human, UniProt Q15637 1-320)
T3 construct: human SF1, C-terminal truncation to amino acid 320; it follows the naming of the other truncations; also called deletion to amino acid 320; source: E. coli XL1-Blue, purified (TALON resin, lysis in 8 M urea, dialyzed); not shown: His6, N-terminal, kept
T3 sequence (looked up): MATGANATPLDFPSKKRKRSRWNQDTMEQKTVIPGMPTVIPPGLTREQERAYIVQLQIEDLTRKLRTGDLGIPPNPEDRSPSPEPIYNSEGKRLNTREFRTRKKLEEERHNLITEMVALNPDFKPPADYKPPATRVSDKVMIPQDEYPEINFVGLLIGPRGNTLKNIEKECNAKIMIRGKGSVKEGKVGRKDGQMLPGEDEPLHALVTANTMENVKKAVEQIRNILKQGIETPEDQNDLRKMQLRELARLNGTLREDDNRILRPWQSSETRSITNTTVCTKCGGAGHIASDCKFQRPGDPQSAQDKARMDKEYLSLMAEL

T4: His6-MBP-SF1-C370 Δ306–326 (human, UniProt Q15637 1-370, Δ306–326, replaced by one KpnI site encoding Gly and Thr)
T4 construct: in pETMBP-1a; source: E. coli BL21, purified (TALON resin, lysis in 8 M urea, dialyzed); not shown: His6, N-terminal, kept; MBP, N-terminal, kept
T4 sequence (looked up): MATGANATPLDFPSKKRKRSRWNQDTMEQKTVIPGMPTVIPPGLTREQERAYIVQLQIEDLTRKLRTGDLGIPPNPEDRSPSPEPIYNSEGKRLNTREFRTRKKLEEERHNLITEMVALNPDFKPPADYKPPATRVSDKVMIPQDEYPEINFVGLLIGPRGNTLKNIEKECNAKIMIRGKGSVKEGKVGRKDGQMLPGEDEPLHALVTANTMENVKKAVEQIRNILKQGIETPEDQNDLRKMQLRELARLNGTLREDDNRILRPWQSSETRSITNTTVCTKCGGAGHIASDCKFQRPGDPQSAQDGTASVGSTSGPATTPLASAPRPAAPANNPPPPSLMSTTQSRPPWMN

T5: His6-SF1-C302 (human, UniProt Q15637 1-302)
T5 construct: source: E. coli XL1-Blue, purified (TALON resin, lysis in 8 M urea, dialyzed); not shown: His6, N-terminal, kept
T5 sequence (looked up): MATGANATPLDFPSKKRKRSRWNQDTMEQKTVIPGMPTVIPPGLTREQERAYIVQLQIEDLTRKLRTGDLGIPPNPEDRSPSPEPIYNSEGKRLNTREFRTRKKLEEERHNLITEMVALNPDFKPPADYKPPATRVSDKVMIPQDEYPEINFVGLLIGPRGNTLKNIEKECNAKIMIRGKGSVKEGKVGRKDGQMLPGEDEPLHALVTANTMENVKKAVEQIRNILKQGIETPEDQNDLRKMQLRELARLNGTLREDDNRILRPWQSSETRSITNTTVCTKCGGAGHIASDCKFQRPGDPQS

T6: His6-SF1-C315 (human, UniProt Q15637 1-315)
T6 construct: source: E. coli XL1-Blue, purified (TALON resin, lysis in 8 M urea, dialyzed); not shown: His6, N-terminal, kept
T6 sequence (looked up): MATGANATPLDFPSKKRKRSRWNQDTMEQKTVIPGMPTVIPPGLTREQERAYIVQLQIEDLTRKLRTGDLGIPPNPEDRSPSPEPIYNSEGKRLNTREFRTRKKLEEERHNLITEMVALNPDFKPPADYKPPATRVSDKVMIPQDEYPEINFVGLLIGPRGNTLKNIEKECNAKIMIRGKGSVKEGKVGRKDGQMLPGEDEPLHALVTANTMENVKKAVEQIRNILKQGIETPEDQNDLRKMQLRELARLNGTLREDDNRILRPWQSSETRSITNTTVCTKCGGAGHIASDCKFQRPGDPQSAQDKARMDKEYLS


Columns and labels:
Experiment in all cases: pull-down; GST fusion proteins on glutathione-agarose; His6- or His6-MBP-tagged SF1 proteins in two-fold molar excess; NETN (20 mM Tris-HCl pH 8.0, 50 mM NaCl, 0.5% NP-40, 0.5 mM EDTA), 45 min 4°C; with or without RNase A; western blot with anti-His6
Conditions in all cases: both partners purified
His6-SF1-C370 = target: T1, His6-SF1-C370
His6-SF1-C327 = target: T2, His6-SF1-C327
His6-SF1-C320 = target: T3, His6-SF1-C320
[1] = target: T4, His6-MBP-SF1-C370 Δ306–326
His6-SF1-C302 = target: T5, His6-SF1-C302
His6-SF1-C315 = target: T6, His6-SF1-C315

Row | binding result (His6-SF1-C370) | binding result (His6-SF1-C327) | binding result (His6-SF1-C320) | binding result [1] | binding result (His6-SF1-C302) | binding result (His6-SF1-C315) | Binder
1 | binds | binds | – | – | – | – | GST-CHERP-SURP (domain or fragment, UniProt Q8IWX8 1-75, looked up, single SURP domain of CHERP, amino acids 1–75, in pDEST15; also called single SURP domain of CHERP; source: E. coli BL21, purified (glutathione agarose)) MEMPLPPDDQELRNVIDKLAQFVARNGPEFEKMTMEKQKDNPKFSFLFGGEFYSYYKCKLALEQQQLICKQQTPE
2 | binds | binds | binds | binds | binds | binds | GST-U2AF65-UHM (domain or fragment, UniProt P26368 367-475, looked up, U2AF homology motif (UHM) of U2AF65, amino acids 367–475; also called U2AF homology motif of U2AF65; source: E. coli XL1-Blue, purified (glutathione agarose)) QVQMGGHPTEVLCLMNMVLPEELLDDEEYEEIVEDVRDECSKYGLVKSIEIPRPVDGVEVPGCGKIFVEFTSVFDCQKAMQGLTGRKFANRVVVTKYCDPDSYHRRDFW
3 | binds | binds | – | – | – | – | GST-SF3a120-SURP1 (domain or fragment, UniProt Q15459 38-113, looked up, SURP1 of SF3a120, amino acids 38–113, in pDEST15; also called SURP1 of SF3a120; source: E. coli BL21, purified (glutathione agarose)) PVVGIIYPPPEVRNIVDKTASFVARNGPEFEARIRQNEINNPKFNFLNPNDPYHAYYRHKVSEFKEGKAQEPSAAI
